What was measured:
human NEP = human NEP (Homo sapiens, UniProt P08473); conditions: literature statement; ref Betts et al, [2008]; cited from earlier work
ADAM10 = assay: 0.4 µg; conditions: human, 37°C, up to 24 h

Sequence of human NEP (P08473 whole entry): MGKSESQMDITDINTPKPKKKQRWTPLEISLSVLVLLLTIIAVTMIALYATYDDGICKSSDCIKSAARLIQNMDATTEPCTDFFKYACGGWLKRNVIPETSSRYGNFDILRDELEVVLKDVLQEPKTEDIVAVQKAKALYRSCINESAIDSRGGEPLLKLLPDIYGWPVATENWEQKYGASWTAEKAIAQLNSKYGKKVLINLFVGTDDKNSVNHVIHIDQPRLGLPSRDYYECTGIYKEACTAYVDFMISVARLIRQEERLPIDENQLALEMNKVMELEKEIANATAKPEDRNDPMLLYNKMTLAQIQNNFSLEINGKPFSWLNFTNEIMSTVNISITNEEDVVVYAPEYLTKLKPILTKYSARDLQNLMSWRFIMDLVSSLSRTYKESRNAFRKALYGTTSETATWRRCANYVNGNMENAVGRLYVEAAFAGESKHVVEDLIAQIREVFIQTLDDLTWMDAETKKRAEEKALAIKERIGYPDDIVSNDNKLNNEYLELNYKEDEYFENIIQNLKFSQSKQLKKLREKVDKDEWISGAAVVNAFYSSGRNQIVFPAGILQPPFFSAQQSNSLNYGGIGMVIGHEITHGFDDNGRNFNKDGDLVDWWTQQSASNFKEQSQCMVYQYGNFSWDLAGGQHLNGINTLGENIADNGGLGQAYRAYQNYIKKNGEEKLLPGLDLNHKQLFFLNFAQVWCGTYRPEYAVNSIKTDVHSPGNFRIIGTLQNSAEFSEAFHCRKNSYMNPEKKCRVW

Aβ40 A21G: Aβ40 peptide with the Flemish mutation A21G (literature)
NEP-mediated degradation (human NEP): attenuated

EVHHQNLVFFAEDVGSNK
fragment found (ADAM10): Aβ11–16 K16N, minor, 5 h

From publication PMC3407951 (EMBO Molecular Medicine, 2012)
